Test results reported in US20240141043A1.

Experiments:
murine CD19 (mouse) [1] = target: murine CD19 (mouse) (UniProt P25918); assay: flow cytometry of mouse peripheral blood, Day 1 after i.v. injection of 50 ug anti-murine CD19-FITC, no CD19-FITC in master mix (injected antibody only) [CONT'D) D]
murine CD19 (mouse) [2] = target: murine CD19 (mouse) (UniProt P25918); assay: flow cytometry of mouse peripheral blood, Day 8 after i.v. injection of 50 ug anti-murine CD19-FITC, no CD19-FITC in master mix (injected antibody only) [CONT'D) D]
murine CD19 (mouse) [3] = target: murine CD19 (mouse) (UniProt P25918); assay: flow cytometry of mouse peripheral blood, Day 5 after i.v. injection of 50 ug anti-murine CD19-FITC, CD19-FITC in master mix [CONT'D) D]
murine CD19 (mouse) [4] = target: murine CD19 (mouse) (UniProt P25918); assay: flow cytometry of mouse peripheral blood, 4hrs after i.v. injection of 50 ug anti-murine CD19-FITC, CD19-FITC in master mix [CONT'D) D]
murine CD19 (mouse) [5] = target: murine CD19 (mouse) (UniProt P25918); assay: flow cytometry of mouse peripheral blood, Day 5 after i.v. injection of 50 ug anti-murine CD19-FITC, no CD19-FITC in master mix (injected antibody only) [CONT'D) D]
murine CD19 (mouse) [6] = target: murine CD19 (mouse) (UniProt P25918); assay: flow cytometry of mouse peripheral blood, Day 1 after i.v. injection of 50 ug anti-murine CD19-FITC, CD19-FITC in master mix [CONT'D) D]
murine CD19 (mouse) [7] = target: murine CD19 (mouse) (UniProt P25918); assay: flow cytometry of mouse peripheral blood, Day 8 after i.v. injection of 50 ug anti-murine CD19-FITC, CD19-FITC in master mix [CONT'D) D]
murine CD19 (mouse) [8] = target: murine CD19 (mouse) (UniProt P25918); assay: flow cytometry of mouse peripheral blood, 4hrs after i.v. injection of 50 ug anti-murine CD19-FITC, no CD19-FITC in master mix (injected antibody only) [CONT'D) D]

murine CD19 (mouse), sequence (P25918 19-547): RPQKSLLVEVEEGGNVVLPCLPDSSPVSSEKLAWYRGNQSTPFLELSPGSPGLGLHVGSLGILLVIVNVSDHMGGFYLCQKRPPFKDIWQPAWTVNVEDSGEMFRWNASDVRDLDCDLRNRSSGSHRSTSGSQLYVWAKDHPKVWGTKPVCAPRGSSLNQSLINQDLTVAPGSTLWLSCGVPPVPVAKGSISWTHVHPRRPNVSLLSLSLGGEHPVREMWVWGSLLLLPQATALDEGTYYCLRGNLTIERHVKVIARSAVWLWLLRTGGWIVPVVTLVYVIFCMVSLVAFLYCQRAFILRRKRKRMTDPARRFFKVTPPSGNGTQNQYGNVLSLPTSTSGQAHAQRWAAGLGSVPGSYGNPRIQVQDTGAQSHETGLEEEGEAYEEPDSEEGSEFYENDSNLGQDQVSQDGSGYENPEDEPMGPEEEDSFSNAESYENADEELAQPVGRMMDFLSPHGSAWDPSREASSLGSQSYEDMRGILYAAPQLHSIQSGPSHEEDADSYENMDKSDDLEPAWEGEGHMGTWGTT

- CD19+CD20+ gate (share of cells in the gate) (murine CD19 (mouse) [1]): 49.1
- CD19+CD20+ gate (share of cells in the gate) (murine CD19 (mouse) [2]): 38.3
- CD19+CD20+ gate (share of cells in the gate) (murine CD19 (mouse) [3]): 43.6
- CD19+CD20+ gate (share of cells in the gate) (murine CD19 (mouse) [4]): 53
- CD19+CD20+ gate (share of cells in the gate) (murine CD19 (mouse) [5]): 44
- CD19+CD20+ gate (share of cells in the gate) (murine CD19 (mouse) [6]): 52.3
- CD19+CD20+ gate (share of cells in the gate) (murine CD19 (mouse) [7]): 36.4
- CD19+CD20+ gate (share of cells in the gate) (murine CD19 (mouse) [8]): 52.7
Substance: anti-murine CD19-FITC antibody (Biolegend; clone 1D3)
